Laboratory results: patent publication US20240182536A1 (MURAL ONCOLOGY, published 2024)
Residue numbers refer to the chain shown, from its start. In names and notes the source's numbering stands.

T1: IL-18 receptors on HEK-Blue IL-18 reporter cells (UniProt Q13478 19-541; O95256 20-599, limits assumed)
T1 sequence (looked up) 1: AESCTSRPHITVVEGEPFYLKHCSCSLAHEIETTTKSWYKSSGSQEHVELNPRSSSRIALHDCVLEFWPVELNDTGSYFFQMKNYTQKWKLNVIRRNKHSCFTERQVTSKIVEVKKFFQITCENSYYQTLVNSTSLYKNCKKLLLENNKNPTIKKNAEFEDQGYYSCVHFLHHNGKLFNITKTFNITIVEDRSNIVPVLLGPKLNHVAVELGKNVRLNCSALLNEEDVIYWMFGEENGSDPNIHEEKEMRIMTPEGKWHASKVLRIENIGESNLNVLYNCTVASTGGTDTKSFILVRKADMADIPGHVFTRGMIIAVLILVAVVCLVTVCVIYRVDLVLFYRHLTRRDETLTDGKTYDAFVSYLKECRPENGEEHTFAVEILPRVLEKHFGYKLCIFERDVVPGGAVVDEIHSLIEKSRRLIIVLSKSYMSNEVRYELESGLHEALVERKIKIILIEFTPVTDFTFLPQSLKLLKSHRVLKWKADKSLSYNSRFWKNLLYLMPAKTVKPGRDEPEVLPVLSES
T1 sequence (looked up) 2: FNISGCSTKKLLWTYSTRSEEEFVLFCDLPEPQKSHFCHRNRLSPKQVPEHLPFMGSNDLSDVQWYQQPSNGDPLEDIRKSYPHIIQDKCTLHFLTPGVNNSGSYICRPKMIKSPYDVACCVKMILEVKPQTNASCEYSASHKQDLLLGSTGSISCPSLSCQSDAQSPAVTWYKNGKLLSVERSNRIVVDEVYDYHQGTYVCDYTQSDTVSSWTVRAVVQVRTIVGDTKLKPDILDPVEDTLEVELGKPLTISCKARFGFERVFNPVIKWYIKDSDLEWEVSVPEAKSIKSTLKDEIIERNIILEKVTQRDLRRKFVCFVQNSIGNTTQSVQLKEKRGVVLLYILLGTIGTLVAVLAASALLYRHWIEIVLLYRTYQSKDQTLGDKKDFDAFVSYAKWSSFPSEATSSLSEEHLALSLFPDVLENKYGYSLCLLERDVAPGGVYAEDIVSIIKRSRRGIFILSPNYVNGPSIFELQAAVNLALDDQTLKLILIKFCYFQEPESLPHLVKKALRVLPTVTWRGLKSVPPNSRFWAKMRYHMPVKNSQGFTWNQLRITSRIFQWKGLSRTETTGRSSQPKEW

T2: interleukin 18 binding protein (IL-18BP) (UniProt O95998 31-194)
T2 sequence (looked up): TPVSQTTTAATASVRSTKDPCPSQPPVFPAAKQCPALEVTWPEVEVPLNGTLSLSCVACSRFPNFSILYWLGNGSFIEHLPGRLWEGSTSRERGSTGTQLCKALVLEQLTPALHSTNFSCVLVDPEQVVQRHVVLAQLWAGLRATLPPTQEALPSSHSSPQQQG

B1: IL-18 variant K53V, S55Q (ligand)
chain: YFGKLESKLSVIRNLNDQVLFIDQGNRPLFEDMTDSDMRDNAPRTIFIISMYVDQQPRGMAVTISVKSEKISTLSSENKIISFKEMNPPDNIKDTKSDIIFFQRSVPGHDNKMQFESSSYEGYFLASEKERDLFKLILKKEDELGDRSIMFTVQNED
B2: IL-18 variant S36E, D37E, D40R, N41G, K53Y, S55F (ligand)
chain: B1 chain with S36E, D37E, D40R, N41G, V53Y, Q55F
B3: IL-18 variant K53D, S55Q, P107M (ligand)
chain: B1 chain with V53D, P107M
B4: IL-18 variant K53Y, S55Y, Q56H (ligand)
chain: B1 chain with V53Y, Q55Y, Q56H
B5: IL-18 variant K53Y, S55V (ligand)
chain: B1 chain with V53Y, Q55V
B6: IL-18 variant K53N, S55Y (ligand)
chain: B1 chain with V53N, Q55Y
B7: IL-18 variant K53S, S55Y, P107M (ligand)
chain: B1 chain with V53S, Q55Y, P107M
B8: IL-18 variant L9V, K53H, S55M (ligand)
chain: B1 chain with L9V, V53H, Q55M
B9: IL-18 variant K53H, S55H (ligand)
chain: B1 chain with V53H, Q55H
B10: IL-18 variant K53H, S55I (ligand)
chain: B1 chain with V53H, Q55I
B11: IL-18 variant K53H, S55M, Q56H (ligand)
chain: B1 chain with V53H, Q55M, Q56H
B12: IL-18 variant K53H, S55Q (ligand)
chain: B1 chain with V53H
B13: IL-18 variant T34E, N41D, K53N, S55R (ligand)
chain: B1 chain with T34E, N41D, V53N, Q55R
B14: IL-18 variant K53L, S55E (ligand)
chain: B1 chain with V53L, Q55E
B15: IL-18 variant K53S, S55F, T63S, R104K, H109Y (ligand)
chain: B1 chain with V53S, Q55F, T63S, R104K, H109Y
B16: IL-18 variant S36W, D37E, D40F, N41I, K53D, S55N (ligand)
chain: B1 chain with S36W, D37E, D40F, N41I, V53D, Q55N
B17: IL-18 variant K53D, S55T, H109I (ligand)
chain: B1 chain with V53D, Q55T, H109I

What was measured:
[1] = target: T1, IL-18 receptors on HEK-Blue IL-18 …; test: cell-based or functional assay
[2] = target: T2, interleukin 18 binding protein (IL-18BP); test: cell-based or functional assay

Binder | HEK-Blue activity, No BP, DF-10000 [1] | HEK-Blue activity, No BP, DF-100,000 [1] | HEK-Blue activity, No BP, DF-1,000,000 [1] | HEK-Blue activity, +100 nM BP, DF-10000 [2] | HEK-Blue activity, +100 nM BP, DF-100,000 [2] | HEK-Blue activity, +100 nM BP, DF-1,000,000 [2] | Ratio (-BP/+BP), DF-10000 [2] | Ratio (-BP/+BP), DF-100,000 [2] | Ratio (-BP/+BP), DF-1,000,000 [2]
B1 | 0.2 | 0.14 | 0.11 | 0.2 | 0.17 | 0.13 | 1 | 0.81 | 0.88
B2 | 0.2 | 0.12 | 0.14 | 0.16 | 0.19 | 0.14 | 1.19 | 0.64 | 1.06
B3 | 0.19 | 0.13 | 0.13 | 0.22 | 0.14 | 0.13 | 0.85 | 0.97 | 1.02
B4 | 0.16 | 0.15 | 0.14 | 0.22 | 0.2 | 0.19 | 0.73 | 0.76 | 0.73
B5 | 0.16 | 0.2 | 0.16 | 0.16 | 0.14 | 0.13 | 1.03 | 1.44 | 1.27
B6 | 0.16 | 0.09 | 0.08 | 0.14 | 0.09 | 0.09 | 1.11 | 1.02 | 0.96
B7 | 0.15 | 0.11 | 0.12 | 0.19 | 0.14 | 0.18 | 0.82 | 0.76 | 0.69
B8 | 0.15 | 0.1 | 0.11 | 0.16 | 0.1 | 0.14 | 0.94 | 1.01 | 0.78
B9 | 0.15 | 0.1 | 0.08 | 0.15 | 0.1 | 0.09 | 1.01 | 0.99 | 0.96
B10 | 0.14 | 0.1 | 0.09 | 0.16 | 0.11 | 0.1 | 0.92 | 0.9 | 0.89
B11 | 0.14 | 0.09 | 0.08 | 0.15 | 0.1 | 0.09 | 0.97 | 0.96 | 0.92
B12 | 0.14 | 0.1 | 0.09 | 0.14 | 0.1 | 0.1 | 1.03 | 1.03 | 0.91
B13 | 0.14 | 0.1 | 0.09 | 0.1 | 0.13 | 0.09 | 1.42 | 0.74 | 1.05
B14 | 0.14 | 0.1 | 0.09 | 0.12 | 0.09 | 0.09 | 1.12 | 1.07 | 1.01
B15 | 0.14 | 0.09 | 0.09 | 0.13 | 0.09 | 0.09 | 1.03 | 1 | 0.99
B16 | 0.13 | 0.14 | 0.13 | 0.2 | 0.13 | 0.12 | 0.68 | 1.07 | 1.05
B17 | 0.13 | 0.09 | 0.08 | 0.12 | 0.09 | 0.09 | 1.1 | 0.97 | 0.98
